Data taken from US8734803.

Molecular target: NA (neuraminidase) used in the NA activity inhibition experiments of Example 9
Assay: cell-based or functional assay

| Binder | IC50, inhibition of NA activity [mg/L] |
| --- | --- |
| plant-produced humanized 2B9 antibody G2K3 (antibody, V domains shown) VH: QVQLVQSGSELKKPGASVKMSCKAAGYTFTNYWIGWVRQAPGQGLEWIGDIYPENDFSNYNEKFKDRATLTADTSTRTAYMELSSLRSEDTAVYYCVRANEGWYLDVWGQGTTVTVSS VL: DIQMTQSPSSLSASVGDRVTITCRASENIYSYLAWYQQKPGKAPKLLVYFAKTLAEGVPSRFSGSGSGTEFTLTISSLQPDDFANYYCQHHYGTPYTFGQGTKLEIKR | 0.5 |
| plant-produced humanized 2B9 antibody G2K4 (antibody, V domains shown) VH: QVQLVQSGSELKKPGASVKMSCKAAGYTFTNYWIGWVRQAPGQGLEWIGDIYPENDFSNYNEKFKDRATLTADTSTRTAYMELSSLRSEDTAVYYCVRANEGWYLDVWGQGTTVTVSS VL: DIQMTQSPSSLSASVGDRVTITCRASENIYSYLAWYQQKPGKAPKLLVYFAKTLAEGVPSRFSGSGSGTEFTLTISSLQPDDFATYYCQHHYGTPYTFGQGTKLEIKR | 1.16 |
| plant-produced humanized 2B9 antibody G5K3 (antibody, V domains shown) VH: QVQLVQSGSELKKPGASVKVSCKAAGYTFTNYWIGWVRQAPGQGLEWIGDIYPENDFSNYNEKFKDRVTITADTSTSTAYMELSSLRSEDTAVYYCVRANEGWYLDVWGQGTTVTVSS VL: DIQMTQSPSSLSASVGDRVTITCRASENIYSYLAWYQQKPGKAPKLLVYFAKTLAEGVPSRFSGSGSGTEFTLTISSLQPDDFANYYCQHHYGTPYTFGQGTKLEIKR | 0.45 |
| plant-produced humanized 2B9 antibody G5K4 (antibody, V domains shown) VH: QVQLVQSGSELKKPGASVKVSCKAAGYTFTNYWIGWVRQAPGQGLEWIGDIYPENDFSNYNEKFKDRVTITADTSTSTAYMELSSLRSEDTAVYYCVRANEGWYLDVWGQGTTVTVSS VL: DIQMTQSPSSLSASVGDRVTITCRASENIYSYLAWYQQKPGKAPKLLVYFAKTLAEGVPSRFSGSGSGTEFTLTISSLQPDDFATYYCQHHYGTPYTFGQGTKLEIKR | 0.21 |
